Measured values reported in PMC4355236.

Molecular target: T1, POT1 (Homo sapiens, UniProt Q9NUX5 1-634)
T1 sequence: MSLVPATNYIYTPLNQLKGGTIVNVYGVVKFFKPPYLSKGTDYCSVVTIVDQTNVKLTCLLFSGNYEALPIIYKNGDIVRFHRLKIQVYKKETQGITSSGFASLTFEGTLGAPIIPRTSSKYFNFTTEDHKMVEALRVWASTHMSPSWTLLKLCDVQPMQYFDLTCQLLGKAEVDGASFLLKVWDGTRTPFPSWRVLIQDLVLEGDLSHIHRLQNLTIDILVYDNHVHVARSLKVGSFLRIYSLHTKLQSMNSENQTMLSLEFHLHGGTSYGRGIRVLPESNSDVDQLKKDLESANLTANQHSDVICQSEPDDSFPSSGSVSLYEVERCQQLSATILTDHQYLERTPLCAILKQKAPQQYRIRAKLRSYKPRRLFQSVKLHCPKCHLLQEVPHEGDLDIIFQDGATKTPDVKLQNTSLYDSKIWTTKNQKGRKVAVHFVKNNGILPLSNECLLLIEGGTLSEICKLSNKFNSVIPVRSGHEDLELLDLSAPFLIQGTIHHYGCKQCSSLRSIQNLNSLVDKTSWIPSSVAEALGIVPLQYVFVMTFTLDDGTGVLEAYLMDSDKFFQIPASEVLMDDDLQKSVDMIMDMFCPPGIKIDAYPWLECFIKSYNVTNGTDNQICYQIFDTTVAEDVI
Assay: EMSA

Binder TTAGGGTTAGCGTTAGGGTT (ssDNA) [primer a5TT] has a Kd of 50 nM.
